Laboratory results from PMC10497828 (2023).

Key:
amyloid beta oligomers = amyloid beta oligomers (Homo sapiens, UniProt P05067); assay: saturation binding/Scatchard
amyloid beta monomer = amyloid beta monomer (Homo sapiens, UniProt P05067); assay: saturation binding/Scatchard
Sequence of amyloid beta monomer (P05067 672-713): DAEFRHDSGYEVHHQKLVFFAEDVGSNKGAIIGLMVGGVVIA

Sequence of amyloid beta oligomers (P05067 672-713): as above

B1: BP (VEGF-derived peptide) (protein)
chain: MTDRQTDTAPSPSYHLLPGRRRTVDAAASRGQGPEPAPGGGVEGVGARGVALKLFVQLLGCSRFGGAVVRAGEAEPSGAARSASSGREEPQPEEGEEEEEKEEERGPQWRLGARKPGSWTGEAAVCADSAPAARAPQALARASGRGGRVARRGAEESGPPHSPSRRGSASRAGPGRASETMNFLLSWVHWSLALLLYLHHAKWSQAAPMAEGGGQNHHEVVKFMDVYQRSYCHPIETLVDIFQEYPDEIEYIFKPSCVPLMRCGGCCNDEGLECVPTEESNITMQIMRIKPHQGQHIGEMSFLQHNKCECRPKKDRARQEKKSVRGKGKGQKRKRKKSRYKSWSVPCGPCSERRKHLFVQDPQTCKCSCKNTDSRCKARQLELNERTCRCDKPRR
- Kd (amyloid beta oligomers): 12 nM
- Kd (amyloid beta monomer): 19 µM
